Data taken from patent US20210087244A1.

Target: A-beta42 Monomer (human)
Assay: SPR direct binding (MASS-1), hybridoma supernatant over immobilized antigen

Chain of A-beta42 Monomer (human) (peptide, as listed by the source): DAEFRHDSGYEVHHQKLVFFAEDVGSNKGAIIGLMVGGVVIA

B1: 301-12G11 (17) (antibody, V domains shown)
VH: QVQLQQPGAELVKPGASVKMSCKASGYSFTSYWINWVKQRPGQGLEWIGDVHPGRGVSTYNAKFKSKATLTLDTSSSTAYMQLSSLTSEDSAVYYCSRSHGNTYWFFDVWGAGTTVTVSS
VL: DVLMTQTPLSLPVSLGDQASISCRSSQSIVHSNGNTYLEWYLQKPGQSPKLLIYKVSNRFSGVPDRFSGSGSGTDFTLKISRVEAEDLGVYYCFQGSHVPFTFGSGTKLEIKR
B1 gave a response units (RU) of 46 RU.
